Columns and labels:
[1] = molecular target: human CD81 (human) (UniProt P60033); assay: cell-based or functional assay
[2] = molecular target: HCV E2 glycoprotein of genotype 1a (hepatitis C virus genotype 1a) (UniProt P27958); assay: cell-based or functional assay

Substance	inhibition of infection by HCVpp of genotypes 1a and 1b (target cells pre-incubated with antibody at 30 µg/ml) [1] [%]	inhibition of infectivity of HCVpp on Huh-7 cells (polypeptide at 4, 8, 16 µg/ml pre-incubated with the pseudo-particles) [2] [%]
JS-81 anti-CD81 monoclonal antibody	> 90	
recombinant GST-fusion polypeptide encompassing the large extra-cellular loop (LEL) of human CD81 (from UniProt P60033 113-201)		38 to 54
